In paper PMC11014265:
Changes are numbered by the printed parent chain. Read-outs that look alike come from different tables or passages of the source.

Key:
Assay in all cases: fluorescence anisotropy
HrpA75-1300 (no APHB) [1] = molecular target: T1, HrpA75-1300 (no APHB) (Escherichia coli, UniProt P43329 75-1300)
T1 sequence: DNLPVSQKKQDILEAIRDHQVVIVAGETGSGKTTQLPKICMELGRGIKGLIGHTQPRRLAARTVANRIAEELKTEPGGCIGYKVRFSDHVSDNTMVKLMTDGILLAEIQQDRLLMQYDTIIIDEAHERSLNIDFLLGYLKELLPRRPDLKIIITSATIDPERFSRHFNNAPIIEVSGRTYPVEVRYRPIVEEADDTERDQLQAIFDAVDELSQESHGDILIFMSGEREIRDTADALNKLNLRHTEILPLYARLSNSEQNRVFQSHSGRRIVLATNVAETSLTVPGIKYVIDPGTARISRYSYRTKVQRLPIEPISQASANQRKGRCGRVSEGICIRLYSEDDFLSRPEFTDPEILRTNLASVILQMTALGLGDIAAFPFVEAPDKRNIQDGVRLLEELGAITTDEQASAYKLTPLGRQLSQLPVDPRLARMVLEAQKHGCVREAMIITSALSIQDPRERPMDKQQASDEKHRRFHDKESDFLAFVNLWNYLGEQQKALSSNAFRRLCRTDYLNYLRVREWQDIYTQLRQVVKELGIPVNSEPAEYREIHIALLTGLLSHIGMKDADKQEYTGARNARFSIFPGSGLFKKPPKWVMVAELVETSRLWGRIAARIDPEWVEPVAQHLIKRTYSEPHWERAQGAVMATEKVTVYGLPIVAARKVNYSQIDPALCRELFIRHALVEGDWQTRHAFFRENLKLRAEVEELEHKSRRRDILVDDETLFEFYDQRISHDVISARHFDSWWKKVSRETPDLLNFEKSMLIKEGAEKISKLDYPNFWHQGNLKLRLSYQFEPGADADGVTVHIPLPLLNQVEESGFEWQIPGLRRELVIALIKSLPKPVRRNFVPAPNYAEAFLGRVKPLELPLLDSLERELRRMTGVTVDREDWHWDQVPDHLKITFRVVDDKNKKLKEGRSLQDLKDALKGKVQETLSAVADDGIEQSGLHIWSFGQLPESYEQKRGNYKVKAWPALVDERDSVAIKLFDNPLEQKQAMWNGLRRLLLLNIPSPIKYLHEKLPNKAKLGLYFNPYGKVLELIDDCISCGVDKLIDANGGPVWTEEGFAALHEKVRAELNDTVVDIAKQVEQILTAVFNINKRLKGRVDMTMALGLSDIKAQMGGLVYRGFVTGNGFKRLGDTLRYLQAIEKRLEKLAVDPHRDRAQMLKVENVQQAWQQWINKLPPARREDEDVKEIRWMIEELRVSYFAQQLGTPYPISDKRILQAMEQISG

HrpA75-758 (no APHB) [2] = molecular target: T2, HrpA75-758 (no APHB) (Escherichia coli, UniProt P43329 75-758)
T2 sequence: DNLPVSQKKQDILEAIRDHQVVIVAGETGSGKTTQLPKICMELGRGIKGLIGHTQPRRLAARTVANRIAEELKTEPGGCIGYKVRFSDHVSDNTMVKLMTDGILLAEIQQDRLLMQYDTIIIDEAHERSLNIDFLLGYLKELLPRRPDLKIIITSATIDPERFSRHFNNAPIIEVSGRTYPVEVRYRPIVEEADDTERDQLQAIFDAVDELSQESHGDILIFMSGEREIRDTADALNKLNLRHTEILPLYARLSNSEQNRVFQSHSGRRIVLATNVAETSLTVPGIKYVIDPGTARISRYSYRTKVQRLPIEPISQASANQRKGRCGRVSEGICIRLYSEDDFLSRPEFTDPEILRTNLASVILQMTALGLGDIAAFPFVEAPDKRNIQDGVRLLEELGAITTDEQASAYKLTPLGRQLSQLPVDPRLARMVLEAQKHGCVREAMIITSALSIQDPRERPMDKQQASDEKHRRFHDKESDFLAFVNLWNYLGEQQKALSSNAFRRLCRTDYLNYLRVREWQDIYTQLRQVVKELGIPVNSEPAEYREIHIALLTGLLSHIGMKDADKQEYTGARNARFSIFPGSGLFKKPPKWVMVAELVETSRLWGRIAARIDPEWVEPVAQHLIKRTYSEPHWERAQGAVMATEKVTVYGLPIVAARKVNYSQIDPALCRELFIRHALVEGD

HrpA1-1300 E49A [3] = molecular target: T3, HrpA1-1300 E49A (Escherichia coli, UniProt P43329 1-1300, E49A)
T3 sequence: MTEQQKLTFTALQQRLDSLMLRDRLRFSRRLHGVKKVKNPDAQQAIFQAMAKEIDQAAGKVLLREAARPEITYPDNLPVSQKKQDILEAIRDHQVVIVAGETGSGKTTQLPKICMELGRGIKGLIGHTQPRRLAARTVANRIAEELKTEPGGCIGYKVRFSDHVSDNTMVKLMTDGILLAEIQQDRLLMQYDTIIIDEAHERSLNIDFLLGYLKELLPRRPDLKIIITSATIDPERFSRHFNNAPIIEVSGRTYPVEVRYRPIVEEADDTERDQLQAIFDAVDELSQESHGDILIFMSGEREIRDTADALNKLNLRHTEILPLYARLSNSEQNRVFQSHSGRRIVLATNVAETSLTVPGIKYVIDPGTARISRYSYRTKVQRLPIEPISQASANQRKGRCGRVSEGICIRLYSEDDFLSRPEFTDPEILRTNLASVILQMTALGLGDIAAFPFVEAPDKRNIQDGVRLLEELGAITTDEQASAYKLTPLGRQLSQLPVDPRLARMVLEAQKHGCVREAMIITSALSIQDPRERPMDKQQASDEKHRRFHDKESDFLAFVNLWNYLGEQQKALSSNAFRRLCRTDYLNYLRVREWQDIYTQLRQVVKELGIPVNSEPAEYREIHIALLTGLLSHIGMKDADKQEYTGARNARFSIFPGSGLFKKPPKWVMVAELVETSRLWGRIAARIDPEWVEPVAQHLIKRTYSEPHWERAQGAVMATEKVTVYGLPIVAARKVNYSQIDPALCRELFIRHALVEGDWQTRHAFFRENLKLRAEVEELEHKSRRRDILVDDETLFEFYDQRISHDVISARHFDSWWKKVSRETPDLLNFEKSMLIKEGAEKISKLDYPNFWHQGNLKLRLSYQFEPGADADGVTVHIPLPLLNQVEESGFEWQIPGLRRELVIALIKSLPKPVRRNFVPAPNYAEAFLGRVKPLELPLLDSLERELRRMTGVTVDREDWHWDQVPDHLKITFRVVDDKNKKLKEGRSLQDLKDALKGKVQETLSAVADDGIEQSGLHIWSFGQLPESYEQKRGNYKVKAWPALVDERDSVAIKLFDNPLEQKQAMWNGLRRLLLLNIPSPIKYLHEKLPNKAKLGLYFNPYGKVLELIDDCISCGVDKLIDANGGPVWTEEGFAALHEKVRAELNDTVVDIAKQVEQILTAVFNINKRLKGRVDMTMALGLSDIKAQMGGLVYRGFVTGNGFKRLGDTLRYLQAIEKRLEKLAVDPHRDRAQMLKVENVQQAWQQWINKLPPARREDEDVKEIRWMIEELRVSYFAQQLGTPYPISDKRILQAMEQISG

HrpA75-1300 (no APHB) [4] = molecular target: T1, HrpA75-1300 (no APHB); remark: listed apart in the source
HrpA75-1300 (no APHB) [5] = molecular target: T1, HrpA75-1300 (no APHB); remark: listed apart in the source
HrpA75-758 (no APHB) [6] = molecular target: T2, HrpA75-758 (no APHB); remark: listed apart in the source
HrpA1-1300 (full-length) = molecular target: T4, HrpA1-1300 (full-length) (Escherichia coli, UniProt P43329 1-1300)
T4 sequence: T3 sequence with A49E

HrpA75-1300 (no APHB) [7] = molecular target: T1, HrpA75-1300 (no APHB); remark: listed apart in the source
HrpA1-1300 E49A [8] = molecular target: T3, HrpA1-1300 E49A; remark: listed apart in the source
HrpA75-1300 (no APHB) [9] = molecular target: T1, HrpA75-1300 (no APHB); remark: listed apart in the source
HrpA75-1300 (no APHB) [10] = molecular target: T1, HrpA75-1300 (no APHB); remark: listed apart in the source

CCCCCCCCCCCC (ssRNA) [R-C12]
binding signal (HrpA75-1300 (no APHB) [1]): > 9 fold reduction
binding signal (HrpA75-758 (no APHB) [2]): > 3 fold reduction

GTGTGTGTGTGT (ssDNA) [D-G-rich]
binding result (HrpA1-1300 E49A [3]): binds
binding result (HrpA75-1300 (no APHB) [4]): no binding

GUGUGUGUGUGU (ssRNA) [R-G-rich]
binding signal (HrpA75-1300 (no APHB) [5]): > 9 fold reduction
binding signal (HrpA75-758 (no APHB) [6]): > 3 fold reduction

TTTTTTTTTTTT (ssDNA) [D-T12]
Kd (HrpA1-1300 (full-length)): 307 nM

AAAAAAAAAAAA (ssRNA) [R-A12]
binding signal (HrpA75-1300 (no APHB) [7]): > 3 fold reduction
binding signal (HrpA75-758 (no APHB) [6]): > 3 fold reduction

CCCCCCCCCCCC (ssDNA) [D-C12]
binding result (HrpA1-1300 E49A [8]): binds
binding result (HrpA75-1300 (no APHB) [9]): no binding

UUUUUUUUUUUU (ssRNA) [R-U12]
binding signal (HrpA75-758 (no APHB) [2]): > 3 fold reduction
binding signal (HrpA75-1300 (no APHB) [10]): > 2 fold reduction
